Measured values published in patent US20030050242A1, “Protein polymerization inhibitors and methods of use” (priority 1999, published 2003).
Ends that are not written are not given here. Peptide text beside a SMILES is read from it.

Assays:
HIV-1 [1] = conditions: 100 μM; Experiment 6
Protocol: The HUT cells were resuspended in 1 ml of RPMI 1640 medium supplemented with 10% (v/v) heat-inactivated fetal bovine serum (FBS, GIBCO), penicillin (100 u/ml), streptomycin (100 u/ml) and Polybrene (Sigma, 2 μg/ml) with or without the presence of the different small peptides (100 μM) mentioned above. Thereafter, the HIV-1 virus was added at 25 TCID50 in a volume of 20 μl. Cells were incubated with the virus at 37° C. for one hour and, subsequently, the cells were pelleted at 170× g for seven minutes. The cells were then washed three times in RPMI medium without peptides at room temperature by cell sedimentation at 170× g for seven minutes, as above. After the final wash, the cells were resuspended in RPMI culture medium in 24-well plate (Costar corporation) and were kept at 37° C. in 5% CO2 with humidity. Culture supernatants were collected when medium was changed at day 4, 7, and 11 post infection and viral p24 production was monitored by using an HIV-1 p24 ELISA kit (Abbott Laboratories, North Chicago, USA).

HIV-1 [2] = conditions: summary of Experiments 1-6
Protocol: Next, the ability of peptide agents to inhibit viral infection was evaluated. Accordingly, the peptide agents listed in Table 1 were used in several viral (e.g., HIV-1, HIV-2, and SIV) infection assays. […] Once inhibitory tripeptides were identified, more specific assays were conducted to determine the effect of varying concentrations of the selected tripeptides and combination treatments (e.g., the use of more than one modified tripeptide in combination).

[3] = target: viral capsid protein (p24) of SIV (SIV)
[4] = target: viral capsid protein (p24) of HIV-2 (HIV-2)
[5] = target: T1, major capsid protein (p24) of HIV-1 (HIV-1, UniProt P04591); assay: cell-based or functional assay
[6] = target: T1, major capsid protein (p24) of HIV-1; assay: cell-based or functional assay; remark: listed apart in the source

CC(C)C[C@H](NC(=O)[C@H](C)N)C(=O)NCC(N)=O [ALG-NH2, alanyl-leucyl-glycine amide] (H-Ala-Leu-Gly-NH2)
reduction of virus, capsid protein p24 in the supernatant (HIV-1 [1]): ~100%
effect on HIV-1 infection, in words (HIV-1 [2]): inhibited and/or prevented HIV-1 infection

C[C@H](N)C(=O)N[C@@H](CO)C(=O)NCC(N)=O [ASG-NH2, alanyl-seryl-glycine amide] (H-Ala-Ser-Gly-NH2)
inhibiting or preventing HIV-1 infection, in words (HIV-1 [1]): less effective
effect on HIV-1 infection, in words (HIV-1 [2]): inhibited and/or prevented HIV-1 infection

CC(C)[C@H](NC(=O)CN)C(=O)NCC(N)=O [GVG-NH2, glycyl-valyl-glycine amide] (H-Gly-Val-Gly-NH2)
inhibiting or preventing HIV-1 infection, in words (HIV-1 [1]): less effective
effect on HIV-1 infection, in words (HIV-1 [2]): inhibited and/or prevented HIV-1 infection

NCCCC[C@H](N)C(=O)N[C@@H](CCC(N)=O)C(=O)NCC(N)=O [KQG-NH2, lysyl-glutaminyl-glycine amide] (H-Lys-Gln-Gly-NH2)
reduction of virus, capsid protein p24 in the supernatant (HIV-1 [1]): ~100%
effect on HIV-1 infection, in words (HIV-1 [2]): inhibited and/or prevented HIV-1 infection

N=C(N)NCCC[C@H](N)C(=O)N[C@@H](CCC(N)=O)C(=O)NCC(N)=O [RQG-NH2, arginyl-glutaminyl-glycine amide] (H-Arg-Gln-Gly-NH2)
reduction of virus, capsid protein p24 in the supernatant (HIV-1 [1]): ~100%
effect on HIV-1 infection, in words (HIV-1 [2]): inhibited and/or prevented HIV-1 infection

CC(C)C[C@H](NC(=O)[C@@H](N)CO)C(=O)NCC(N)=O [SLG-NH2, seryl-leucyl-glycine amide] (H-Ser-Leu-Gly-NH2)
reduction of virus, capsid protein p24 in the supernatant (HIV-1 [1]): ~100%
effect on HIV-1 infection, in words (HIV-1 [2]): inhibited and/or prevented HIV-1 infection

C[C@@H](O)[C@H](NC(=O)[C@@H]1CCCN1C(=O)[C@@H](N)CO)C(N)=O [SPT-NH2, seryl-prolyl-threonine amide] (H-Ser-Pro-Thr-NH2)
inhibiting or preventing HIV-1 infection, in words (HIV-1 [1]): less effective
effect on HIV-1 infection, in words (HIV-1 [2]): inhibited and/or prevented HIV-1 infection

GAT-NH2 (peptide)
reverse transcriptase (RT) activity in the supernatants, Day 10 RT (OD) [3]: 2.34 OD
reverse transcriptase (RT) activity in the supernatants, Day 10 RT (OD) [4]: 2.83 OD

GHK-NH2 (peptide)
reverse transcriptase (RT) activity in the supernatants, Day 10 RT (OD) [3]: 2.38 OD
reverse transcriptase (RT) activity in the supernatants, Day 10 RT (OD) [4]: 2.93 OD

GPQ-NH2 (peptide)
reverse transcriptase (RT) activity in the supernatants, Day 10 RT (OD) [3]: 2.18 OD
reverse transcriptase (RT) activity in the supernatants, Day 10 RT (OD) [4]: 2.73 OD

Gly-Lys-Gly-NH2 (peptide)
reverse transcriptase (RT) activity in the supernatants, Day 10 RT (OD) [3]: 0.099 OD
reverse transcriptase (RT) activity in the supernatants, Day 10 RT (OD) [4]: 0.147 OD

HKA-NH2 (peptide)
reverse transcriptase (RT) activity in the supernatants, Day 10 RT (OD) [3]: 2.52 OD
reverse transcriptase (RT) activity in the supernatants, Day 10 RT (OD) [4]: 2.67 OD

ILK-NH2 (peptide)
reverse transcriptase (RT) activity in the supernatants, Day 10 RT (OD) [3]: 2.25 OD
reverse transcriptase (RT) activity in the supernatants, Day 10 RT (OD) [4]: 2.79 OD

KAL-NH2 (peptide)
reverse transcriptase (RT) activity in the supernatants, Day 10 RT (OD) [3]: 2.52 OD
reverse transcriptase (RT) activity in the supernatants, Day 10 RT (OD) [4]: 2.75 OD

KAR-NH2 (peptide)
reverse transcriptase (RT) activity in the supernatants, Day 10 RT (OD) [3]: 1.72 OD
reverse transcriptase (RT) activity in the supernatants, Day 10 RT (OD) [4]: 2.64 OD

LKA-NH2 (peptide)
reverse transcriptase (RT) activity in the supernatants, Day 10 RT (OD) [3]: 2.45 OD
reverse transcriptase (RT) activity in the supernatants, Day 10 RT (OD) [4]: 2.77 OD

His-Lys-Ala-NH2 [HKA-NH2]
reverse transcriptase (RT) activity in the supernatants, Day 10 RT (OD) [5]: 2.55 OD

Ile-Leu-Lys-NH2 [ILK-NH2]
reverse transcriptase (RT) activity in the supernatants, Day 10 RT (OD) [5]: 2.03 OD

Ala-Leu-Gly-NH2 [Ala-Leu-Gly-NH2]
p24 production of infected HUT78 cells (HIV-1 p24 ELISA), Day 7 HIV-1, reduction (%), peptide at 100 µM [6]: 100%

Gly-Pro-Gln-NH2 [GPQ-NH2]
reverse transcriptase (RT) activity in the supernatants, Day 10 RT (OD) [5]: 1.97 OD

Gly-Ala-Thr-NH2 [GAT-NH2]
reverse transcriptase (RT) activity in the supernatants, Day 10 RT (OD) [5]: 1.56 OD

Gly-His-Lys-NH2 [GHK-NH2]
reverse transcriptase (RT) activity in the supernatants, Day 10 RT (OD) [5]: 2.15 OD

Cys-Gln-Gly-NH2 [Cys-Gln-Gly-NH2]
reverse transcriptase (RT) activity in the supernatants, Day 10 RT (OD) [5]: 0.108 OD

Gly-Val-Gly-NH2 [Gly-Val-Gly-NH2]
p24 production of infected HUT78 cells (HIV-1 p24 ELISA), Day 7 HIV-1, reduction (%), peptide at 100 µM [6]: 25%

Ala-Ser-Gly-NH2 [Ala-Ser-Gly-NH2]
p24 production of infected HUT78 cells (HIV-1 p24 ELISA), Day 7 HIV-1, reduction (%), peptide at 100 µM [6]: 25%

Ser-Leu-Gly-NH2 [Ser-Leu-Gly-NH2]
p24 production of infected HUT78 cells (HIV-1 p24 ELISA), Day 7 HIV-1, reduction (%), peptide at 100 µM [6]: 99%

Lys-Ala-Leu-NH2 [KAL-NH2]
reverse transcriptase (RT) activity in the supernatants, Day 10 RT (OD) [5]: 2 OD

Ser-Pro-Thr-NH2 [Ser-Pro-Thr-NH2]
p24 production of infected HUT78 cells (HIV-1 p24 ELISA), Day 7 HIV-1, reduction (%), peptide at 100 µM [6]: 25%

Val-Gly-Gly-NH2 [Val-Gly-Gly-NH2]
p24 production of infected HUT78 cells (HIV-1 p24 ELISA), Day 7 HIV-1, reduction (%), peptide at 100 µM [6]: 50%

Leu-Lys-Ala-NH2 [LKA-NH2]
reverse transcriptase (RT) activity in the supernatants, Day 10 RT (OD) [5]: 2.43 OD

Lys-Ala-Arg-NH2 [KAR-NH2]
reverse transcriptase (RT) activity in the supernatants, Day 10 RT (OD) [5]: 2.78 OD

Ala-Arg-Val-NH2 [ARV-NH2]
reverse transcriptase (RT) activity in the supernatants, Day 10 RT (OD) [5]: 1.53 OD

Arg-Gln-Gly-NH2 [Arg-Gln-Gly-NH2]
p24 production of infected HUT78 cells (HIV-1 p24 ELISA), Day 7 HIV-1, reduction (%), peptide at 100 µM [6]: 99%

Ala-Cys-Gln-NH2 [ACQ-NH2]
reverse transcriptase (RT) activity in the supernatants, Day 10 RT (OD) [5]: 0.904 OD

Gly-Lys-Gly-NH2 [Gly-Lys-Gly-NH2]
reverse transcriptase (RT) activity in the supernatants, Day 10 RT (OD) [5]: 0.074 OD

Lys-Gln-Gly-NH2 [Lys-Gln-Gly-NH2]
p24 production of infected HUT78 cells (HIV-1 p24 ELISA), Day 7 HIV-1, reduction (%), peptide at 100 µM [6]: 99%
